We go through four molecules from patent publication US9011845B2, “Methods for treatment of inflammatory and infectious viral diseases” (priority 2012, dated 2015).

Data set [1] relates to Adenovirus Type 5. The data set can be described thus: Adenovirus Type 5 pink-eye clinical disease rabbit eye model. The following applies: treatment initiated eight hours after infection; four times daily. Format: in vivo. The procedure: FIG. 19 is a series of images of rabbit eyes with an Adenoviral infection and treated with control (peg-BSA), cidofovir, or peg-Arginase I drops, according to an example embodiment of the present invention.
In an in vivo rabbit eye model system, the ability of peg-Arginase I to prevent inflammation-associated disease following Adenoviral infection was examined. Rabbit eyes were infected with Adenovirus and eight hours later treatment was initiated. Eyes were treated four times daily with 10 U peg-Arginase I per 50 μl dose. […] FIGS. 20 through 24 illustrate that peg-Arginase I suppresses clinical presentation of disease at all treatment days, including suppression of ocular inflammation and neovascularization. […] These properties of peg-Arginase I illustrate the present invention's utility in preventing numerous vision-threatening ocular diseases that present clinically as inflammation or neovascularization of the eye.

In data set [2] the test system is HSV-1. The data set can be described thus: In vivo rabbit eye model of HSV infection. The following applies: for dendritic or geographic ulceration and clinical appearance: vs controls (PBS or peg-BSA). An excerpt: FIG. 10 is line graph showing viral production in a rabbit eye model for eyes infected with HSV-1 and treated with controls (peg-BSA and PBS), 1% triflourothymidine, or peg-Arginase I, according to an example embodiment of the present invention.
FIG. 11 is a series of images of rabbit eyes infected with HSV-1 and treated with controls (peg-BSA or PBS), 1% triflourothymidine, or peg-Arginase I, according to an example embodiment of the present invention.
In an in vivo rabbit eye model system, the ability of peg-Arginase I to prevent HSV-mediated inflammation-associated disease was assessed relative to a commonly prescribed ophthalmic antiviral-1% triflourothymidine (TFT). Rabbit eyes were infected with HSV, and infection and disease were allowed to establish prior to beginning treatment. […] FIG. 11 depicts representative overall clinical presentation of ocular herpetic disease. In either of the control (PBS or peg-BSA) treatment groups, severe blinding disease was observed following infection, with presence of severe inflammatory discharge and blinding epithelial defects observed by slit lamp examination.

For data set [3], the system named is acyclovir resistant mutant HSV. Kind of data set: Cell cultures infected with acyclovir resistant mutant HSV: infectious HSV yield. The class given is cell-based. The following applies: two different drug resistant mutant HSV viruses. An excerpt: FIG. 8A is a bar graph showing infectious HSV yield for cell cultures infected with an acyclovir resistant mutant HSV, according to an example embodiment of the present invention.
FIG. 8B is a bar graph showing infectious HSV yield for cell cultures infected with a different acyclovir resistant mutant HSV, according to an example embodiment of the present invention.
(§1) In another exemplary embodiment, the present disclosure may be employed to treat pathogenic infections of the eye (e.g., herpes simplex virus types 1 and 2 (HSV-1 and HSV-2) and Adenovirus infections). Embodiments may be used as a treatment against wild-type and/or drug resistant herpes simplex virus (HSV) replication and/or transmission, as well as HSV-mediated inflammation-associated ocular disease.

Data set [4] relates to surgically-induced corneal lesions. The data set can be described thus: Surgically debrided cornea (corneal wound healing) rabbit eye model. Format: in vivo. An excerpt: FIG. 1A is a series of images of rabbit eyes with an 8 mm ([…]) region of cornea surgically debrided and treated with peg vehicle or peg-Arginase I, according to an example embodiment of the present invention.
In an exemplary embodiment, the present disclosure may be employed to treat ocular lesions, which may be caused by accidental or surgical trauma. Application of peg-Arginase I to a corneal lesion accelerates wound healing while reducing or eliminating ocular inflammation, neovascularization and inflammatory discharge.

In data set [5] the test system is VEGF-mediated migration of primary vascular endothelial cells. The data set can be described thus: Endothelial cell migration in a scratch wound healing model. The class given is cell-based. The following applies: twenty-four hour period. An excerpt:
FIG. 25A is a series of images comparing effects of treatment with either control (peg-BSA) or peg-Arginase I on endothelial cell migration in a scratch wound healing model, according to an example embodiment of the present invention.
FIG. 25B is a bar graph showing a percentage of unhealed wound area after a twenty-four hour period for the wounds shown in FIG. 25A.
In another exemplary embodiment, the present disclosure may be employed to prevent and resolve corneal neovascularization and vascularization-associated edema. […] A key mediator and initiator of corneal vascularization may be vascular endothelial growth factor (VEGF).

Data set [6] relates to HSV-1. Kind of data set: Replication of HSV-1 in primary corneal epithelial cell cultures. Format: cell-based. The note with it: primary human corneal epithelial cells.
Text: FIG. 9 is a bar graph showing replication of HSV-1 in primary corneal epithelial cell cultures treated with vehicle or peg-Arginase I, according to an example embodiment of the present invention.
as §1

For data set [7], the system named is Adenovirus. The data set can be described thus: Cell cultures infected with Adenovirus: cytopathic effects. Format: cell-based. An excerpt: FIG. 18 is a pair of images of cell cultures infected with Adenovirus and treated with control (peg-BSA) or peg-Arginase I drops, according to an example embodiment of the present invention.
In another exemplary embodiment, the present disclosure may be employed to treat other inflammation-associated ocular diseases, such as those induced by Adenovirus infection. Clinical presentation following Adenoviral infection of the eye may proceed even when antiviral compounds, such as cidofovir, are present. Clinical presentation of Adenovirus-associated ocular disease may be due to uncontrolled inflammatory responses to the infection even following viral clearance.
In general terms: Protection from cytopathic effect is a common read-out in antiviral testing.

The test system of data set [8] is VEGF-mediated corneal vascularization. Kind of data set: VEGF pellet corneal micropocket rabbit eye model. Format: in vivo. The following applies: 10 U per 50 μl drop 4 times daily. The procedure: FIG. 26A is a pair of images of rabbit eyes having a VEGF pellet surgically implanted into a corneal micropocket and treated with vehicle or peg-Arginase I, according to an example embodiment of the present invention.
In an in vivo rabbit eye model system, the ability of peg-Arginase I to prevent VEGF-mediated corneal vascularization was assessed by implanting slow release VEGF pellets within a corneal micropocket 3 mm from the corneal limbus. Eyes were subsequently treated with either peg-Arginase I (right, OD eye) or peg-BSA vehicle control (left, OS eye) 4 times daily at a dose of 10 U per 50 μl drop. […] As shown, peg-Arginase I inhibits vision-threatening corneal vascularization, further enabling peg-Arginase I to prevent and ameliorate vision-threatening aspects of many ocular diseases. Moreover, inhibition of vascularization assists in suppressing deleterious inflammatory responses.

Data set [9] relates to HSV-1. Kind of data set: HSV-1 infected cell cultures: infectious viral yield, cytopathic effects, cell-to-cell spread. The class given is cell-based.
Text: FIG. 5 is a bar graph showing infectious viral yield for cell cultures infected with HSV-1 and treated with a vehicle (peg vehicle), peg-Arginase I, or different concentrations of acyclovir, according to an example embodiment of the present invention.
FIG. 6 is a series of images showing virus-mediated cytopathic effects on cell cultures treated as described in FIG. 5.
FIG. 7A is a series of images of HSV-plaques showing capacity for cell-to-cell spread following treatment with a vehicle (peg vehicle), peg-Arginase I, or acyclovir, according to an example embodiment of the present invention.
as §1

`Nc1ccn(C[C@@H](CO)OCP(=O)(O)O)c(=O)n1` [cidofovir, reference compound]: the “clinical symptoms / clinical disease presentation” value in data set [1] was “did not prevent clinical disease presentation”.
For the molecule `O=c1[nH]c(=O)n([C@H]2C[C@H](O)[C@@H](CO)O2)cc1C(F)(F)F` [1% TFT, triflourothymidine, reference compound], in data set [2], the “dendritic or geographic ulceration and clinical appearance” value was “marked reduction in the presence of dendritic or geographic ulceration, and improved clinical appearance”.
For `Nc1nc2c(ncn2COCCO)c(=O)[nH]1` [acyclovir, reference compound], the “inhibition of drug-resistant viral replication” value in [3] was “not functional against such strains, even at high doses”.

B1: peg-Arginase I: a formulation of arginase I that has been pegylated; applied as topical ophthalmic eye drop (protein, UniProt P05089 1-322, looked up)
Arginase-1: MSAKSRTIGIIGAPFSKGQPRGGVEEGPTVLRKAGLLEKLKEQECDVKDYGDLPFADIPNDSPFQIVKNPRSVGKASEQLAGKVAEVKKNGRISLVLGGDHSLAIGSISGHARVHPDLGVIWVDAHTDINTPLTTTSGNLHGQPVSFLLKELKGKIPDVPGFSWVTPCISAKDIVYIGLRDVDPGEHYILKTLGIKYFSMTEVDRLGIGKVMEETLSYLLGRKKRPIHLSFDVDGLDPSFTPATGTPVVGGLTYREGLYITEEIYKTGLLSGLDIMEVNPSLGKTPEEVTRTVNTAVAITLACFGLAREGNHKPIDYLNPPK
modifications: PEGylated
notes: a formulation of arginase I that has been pegylated; applied as topical ophthalmic eye drop
With B1, the “Calculated Times of Corneal Epithelium Closure” value in [4] (25% closure) was 14 h; in data set [4] (50% closure), 30 h; in data set [4] (75% closure), 38 h. In addition, the “eyes clinically cured of all ocular parameters” value in data set [4] (by day six) is “all eyes clinically cured”. Besides, in data set [4] (compared with peg-vehicle), the “time for 100% of eyes to reach clinical cure for epithelial defects relative to peg-vehicle” value was “two days faster”. Moreover, the “Number of Eyes Clinically Cured for Area of Corneal Debridement” value in data set [4] (day 0) is recorded as 0/5; in data set [4] (day 1), 0/5; in [4] (day 2) it was 0/5; in data set [4] (day 3) it was 3/5 (60%); in data set [4] (day 4) it was 5/5 (100%); in [4] (day 6), 5/5 (100%). Further, the “Number of Eyes Clinically Cured of All Combined Ocular Clinical Conditions” value in [4] (day 0) was 0/5; in data set [4] (day 1), 0/5; in [4] (day 2), 0/5; in data set [4] (day 3), 0/5; in [4] (day 4) it was 4/5 (80%); in data set [4] (day 6), 5/5 (100%). The “Number of Eyes Clinically Cured of Corneal Neovascularization” value in [4] (day 0), in data set [4] (day 1), in data set [4] (day 2), in data set [4] (day 3), in [4] (day 4) and in data set [4] (day 6) was 5/5 (100%) in each case. Moreover, the “Number of Eyes Clinically Cured of Scleral Inflammation (Injection)” value in [4] (day 0), in [4] (day 1), in data set [4] (day 2), in [4] (day 3), in data set [4] (day 4) and in data set [4] (day 6) was 5/5 (100%) in each case. In addition, the “eyes exhibiting no symptomology from the surgically-induced trauma” value in [4] (day four) is on record as 80%. Moreover, the “VEGF-mediated migration of primary vascular endothelial cells” value in [5] is “prevents VEGF-mediated migration of primary vascular endothelial cells”. Besides, in data set [6], the antiviral effects result is “antiviral effects of peg-Arginase I were also observed”. Further, the “clinical presentation of disease” value in data set [2] (five days of treatment) is reported as “statistically improved clinical presentation of disease”. The “infectious viral titers upon treatment” value in [2] (treatment begun after infection established (day three post infection titers matched)) is “barely detectable”. Also, the “dendritic or geographic ulceration and clinical appearance” value in data set [2] was “marked reduction in the presence of dendritic or geographic ulceration, and improved clinical appearance”. In addition, the toxicity to cells entry in [7] (Adenovirus infected cell cultures) is “no toxicity to cells”. The “Adenovirus-mediated cellular cytopathic effects” value in data set [7] (vs peg-BSA control) is recorded as “prevents Adenovirus-mediated cellular cytopathic effects”. In [1], the “clinical symptoms / clinical disease presentation” value is listed as “fewer clinical symptoms”. The “corneal edema resulting in corneal clouding and epithelial defects” value in data set [8] is listed as “prevented the appearance of corneal edema”. In addition, the “extent and areas of neovascularization of the cornea” value in data set [8] (compared to peg-BSA treated controls) was “significantly reduced”. For the same molecule, the “virus-associated cytopathic effects, viral transmission to uninfected cells, cell-to-cell spread” value in data set [9] (HSV-1 infected cell cultures) was “blocked virus-associated cytopathic effects, viral transmission to uninfected cells, and cell-to-cell spread”. In data set [9] (even at high multiplicities of infection (MOIs)), the “inhibition of production of infectious virus” value is “greater than 1000 fold”. Moreover, the “effectiveness compared with acyclovir” value in data set [9] (infectious viral yield, HSV-1) is given as “at least as effective as high doses of a common anti-herpetic, acyclovir”. The “inhibition of drug-resistant viral replication” value in [3] is “highly efficient at inhibiting drug-resistant viral replication”.
